Results from patent US20220298218A1 (ANTAG THERAPEUTICS, published 2022).
*1 amine or outer side, *2 acyl side, *3 side chain or, on linkers, in order; H or OH if unused. Where no end group is shown, it is not given here. Side-chain parts run from the residue outwards. [ ]: non-standard residue; d: D form. The star is where a group is joined. C18 diacid = O=C(O)CCCCCCCCCCCCCCCCC(=O)*; C16 diacid = O=C(O)CCCCCCCCCCCCCCC(=O)*; γGlu = O=C(O)[C@H](CCC(=O)[*:2])N[*:1]; Nle = CCCC[C@H](N)C(=O)O; PEG = not defined here; AEEA = NCCOCCOCC(=O)O; Aib = CC(C)(N)C(=O)O

T1: human GIP receptor (human, UniProt P48546 22-466)
T1 sequence (looked up): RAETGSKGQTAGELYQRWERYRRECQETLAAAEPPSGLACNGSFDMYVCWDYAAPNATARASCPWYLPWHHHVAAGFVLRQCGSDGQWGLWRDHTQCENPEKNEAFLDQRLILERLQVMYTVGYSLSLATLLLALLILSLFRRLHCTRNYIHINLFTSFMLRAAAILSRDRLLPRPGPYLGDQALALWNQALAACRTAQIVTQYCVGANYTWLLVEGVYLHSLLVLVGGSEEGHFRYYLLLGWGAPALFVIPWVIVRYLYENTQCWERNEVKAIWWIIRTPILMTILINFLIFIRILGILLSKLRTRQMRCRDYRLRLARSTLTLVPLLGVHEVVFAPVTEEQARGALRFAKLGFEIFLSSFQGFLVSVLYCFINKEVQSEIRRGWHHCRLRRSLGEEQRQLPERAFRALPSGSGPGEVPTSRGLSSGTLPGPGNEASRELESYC

B1: AT616 (peptide)
peptide: EGTFISEYSI[Aib]MEKIK(C16 diacid)QQDFVEWLLAQKPSSGAPPPS-OH
modifications: N-terminus assumed
SMILES: CC[C@H](C)[C@H](NC(=O)[C@H](CCCCN)NC(=O)[C@H](CCC(=O)O)NC(=O)[C@H](CCSC)NC(=O)C(C)(C)NC(=O)[C@@H](NC(=O)[C@H](CO)NC(=O)[C@H](Cc1ccc(O)cc1)NC(=O)[C@H](CCC(=O)O)NC(=O)[C@H](CO)NC(=O)[C@@H](NC(=O)[C@H](Cc1ccccc1)NC(=O)[C@@H](NC(=O)CNC(=O)[C@@H](N)CCC(=O)O)[C@@H](C)O)[C@@H](C)CC)[C@@H](C)CC)C(=O)N[C@@H](CCCCNC(=O)CCCCCCCCCCCCCCC(=O)O)C(=O)N[C@@H](CCC(N)=O)C(=O)N[C@@H](CCC(N)=O)C(=O)N[C@@H](CC(=O)O)C(=O)N[C@@H](Cc1ccccc1)C(=O)N[C@H](C(=O)N[C@@H](CCC(=O)O)C(=O)N[C@@H](Cc1c[nH]c2ccccc12)C(=O)N[C@@H](CC(C)C)C(=O)N[C@@H](CC(C)C)C(=O)N[C@@H](C)C(=O)N[C@@H](CCC(N)=O)C(=O)N[C@@H](CCCCN)C(=O)N1CCC[C@H]1C(=O)N[C@@H](CO)C(=O)N[C@@H](CO)C(=O)NCC(=O)N[C@@H](C)C(=O)N1CCC[C@H]1C(=O)N1CCC[C@H]1C(=O)N1CCC[C@H]1C(=O)N[C@@H](CO)C(=O)O)C(C)C
B2: AT614 (peptide)
peptide: EGTFISEYSIAMEKIK(C16 diacid)QQDFVEWLLAQKPSSGAPPPS-OH
modifications: N-terminus assumed
SMILES: CC[C@H](C)[C@H](NC(=O)[C@H](CO)NC(=O)[C@H](Cc1ccc(O)cc1)NC(=O)[C@H](CCC(=O)O)NC(=O)[C@H](CO)NC(=O)[C@@H](NC(=O)[C@H](Cc1ccccc1)NC(=O)[C@@H](NC(=O)CNC(=O)[C@@H](N)CCC(=O)O)[C@@H](C)O)[C@@H](C)CC)C(=O)N[C@@H](C)C(=O)N[C@@H](CCSC)C(=O)N[C@@H](CCC(=O)O)C(=O)N[C@@H](CCCCN)C(=O)N[C@H](C(=O)N[C@@H](CCCCNC(=O)CCCCCCCCCCCCCCC(=O)O)C(=O)N[C@@H](CCC(N)=O)C(=O)N[C@@H](CCC(N)=O)C(=O)N[C@@H](CC(=O)O)C(=O)N[C@@H](Cc1ccccc1)C(=O)N[C@H](C(=O)N[C@@H](CCC(=O)O)C(=O)N[C@@H](Cc1c[nH]c2ccccc12)C(=O)N[C@@H](CC(C)C)C(=O)N[C@@H](CC(C)C)C(=O)N[C@@H](C)C(=O)N[C@@H](CCC(N)=O)C(=O)N[C@@H](CCCCN)C(=O)N1CCC[C@H]1C(=O)N[C@@H](CO)C(=O)N[C@@H](CO)C(=O)NCC(=O)N[C@@H](C)C(=O)N1CCC[C@H]1C(=O)N1CCC[C@H]1C(=O)N1CCC[C@H]1C(=O)N[C@@H](CO)C(=O)O)C(C)C)[C@@H](C)CC
B3: AT613 (peptide)
peptide: EGTFISEYSIAMEKIK(C16 diacid)QQEFVQWLLAQKPSSGAPPPS-OH
modifications: N-terminus assumed
SMILES: CC[C@H](C)[C@H](NC(=O)[C@H](CO)NC(=O)[C@H](Cc1ccc(O)cc1)NC(=O)[C@H](CCC(=O)O)NC(=O)[C@H](CO)NC(=O)[C@@H](NC(=O)[C@H](Cc1ccccc1)NC(=O)[C@@H](NC(=O)CNC(=O)[C@@H](N)CCC(=O)O)[C@@H](C)O)[C@@H](C)CC)C(=O)N[C@@H](C)C(=O)N[C@@H](CCSC)C(=O)N[C@@H](CCC(=O)O)C(=O)N[C@@H](CCCCN)C(=O)N[C@H](C(=O)N[C@@H](CCCCNC(=O)CCCCCCCCCCCCCCC(=O)O)C(=O)N[C@@H](CCC(N)=O)C(=O)N[C@@H](CCC(N)=O)C(=O)N[C@@H](CCC(=O)O)C(=O)N[C@@H](Cc1ccccc1)C(=O)N[C@H](C(=O)N[C@@H](CCC(N)=O)C(=O)N[C@@H](Cc1c[nH]c2ccccc12)C(=O)N[C@@H](CC(C)C)C(=O)N[C@@H](CC(C)C)C(=O)N[C@@H](C)C(=O)N[C@@H](CCC(N)=O)C(=O)N[C@@H](CCCCN)C(=O)N1CCC[C@H]1C(=O)N[C@@H](CO)C(=O)N[C@@H](CO)C(=O)NCC(=O)N[C@@H](C)C(=O)N1CCC[C@H]1C(=O)N1CCC[C@H]1C(=O)N1CCC[C@H]1C(=O)N[C@@H](CO)C(=O)O)C(C)C)[C@@H](C)CC
B4: AT597 (peptide)
peptide: TFISDYK([PEG-PEG-γGlu-C18 diacid])IAMDKIHQQDFVNWLLAQKPSSGAPPPS-NH2
modifications: reading uncertain; also: 2xPEG: PEG unit not given here
B5: AT594 (peptide)
peptide: EGTFISDYSIAMDKIHQK([AEEA-AEEA-γGlu-C18 diacid])DFVNWLLAQKPSSGAPPPS-NH2
modifications: N-terminus assumed
SMILES: CC[C@H](C)[C@H](NC(=O)[C@H](CO)NC(=O)[C@H](Cc1ccc(O)cc1)NC(=O)[C@H](CC(=O)O)NC(=O)[C@H](CO)NC(=O)[C@@H](NC(=O)[C@H](Cc1ccccc1)NC(=O)[C@@H](NC(=O)CNC(=O)[C@@H](N)CCC(=O)O)[C@@H](C)O)[C@@H](C)CC)C(=O)N[C@@H](C)C(=O)N[C@@H](CCSC)C(=O)N[C@@H](CC(=O)O)C(=O)N[C@@H](CCCCN)C(=O)N[C@H](C(=O)N[C@@H](Cc1c[nH]cn1)C(=O)N[C@@H](CCC(N)=O)C(=O)N[C@@H](CCCCNC(=O)COCCOCCNC(=O)COCCOCCNC(=O)CC[C@H](NC(=O)CCCCCCCCCCCCCCCCC(=O)O)C(=O)O)C(=O)N[C@@H](CC(=O)O)C(=O)N[C@@H](Cc1ccccc1)C(=O)N[C@H](C(=O)N[C@@H](CC(N)=O)C(=O)N[C@@H](Cc1c[nH]c2ccccc12)C(=O)N[C@@H](CC(C)C)C(=O)N[C@@H](CC(C)C)C(=O)N[C@@H](C)C(=O)N[C@@H](CCC(N)=O)C(=O)N[C@@H](CCCCN)C(=O)N1CCC[C@H]1C(=O)N[C@@H](CO)C(=O)N[C@@H](CO)C(=O)NCC(=O)N[C@@H](C)C(=O)N1CCC[C@H]1C(=O)N1CCC[C@H]1C(=O)N1CCC[C@H]1C(=O)N[C@@H](CO)C(N)=O)C(C)C)[C@@H](C)CC
B6: AT615 (peptide)
peptide: EGTFISEYS[Aib]A[Nle]EKIK(C16 diacid)QQDFVEWLLAQKPSSGAPPPS-OH
modifications: N-terminus assumed
SMILES: CCCC[C@H](NC(=O)[C@H](C)NC(=O)C(C)(C)NC(=O)[C@H](CO)NC(=O)[C@H](Cc1ccc(O)cc1)NC(=O)[C@H](CCC(=O)O)NC(=O)[C@H](CO)NC(=O)[C@@H](NC(=O)[C@H](Cc1ccccc1)NC(=O)[C@@H](NC(=O)CNC(=O)[C@@H](N)CCC(=O)O)[C@@H](C)O)[C@@H](C)CC)C(=O)N[C@@H](CCC(=O)O)C(=O)N[C@@H](CCCCN)C(=O)N[C@H](C(=O)N[C@@H](CCCCNC(=O)CCCCCCCCCCCCCCC(=O)O)C(=O)N[C@@H](CCC(N)=O)C(=O)N[C@@H](CCC(N)=O)C(=O)N[C@@H](CC(=O)O)C(=O)N[C@@H](Cc1ccccc1)C(=O)N[C@H](C(=O)N[C@@H](CCC(=O)O)C(=O)N[C@@H](Cc1c[nH]c2ccccc12)C(=O)N[C@@H](CC(C)C)C(=O)N[C@@H](CC(C)C)C(=O)N[C@@H](C)C(=O)N[C@@H](CCC(N)=O)C(=O)N[C@@H](CCCCN)C(=O)N1CCC[C@H]1C(=O)N[C@@H](CO)C(=O)N[C@@H](CO)C(=O)NCC(=O)N[C@@H](C)C(=O)N1CCC[C@H]1C(=O)N1CCC[C@H]1C(=O)N1CCC[C@H]1C(=O)N[C@@H](CO)C(=O)O)C(C)C)[C@@H](C)CC
B7: AT602 (peptide)
peptide: TFISDYK([PEG-PEG-γGlu-C18 diacid])IAMDKIHQQDFVNWLLAGGPSSGAPPPS
modifications: not fully specified (C-terminus); reading uncertain

Biological target: T1, human GIP receptor
Assay: cell-based or functional assay

Binder	cAMP agonism % Emax [%]	cAMP antagonism [nM]	cAMP antagonism % inhib [%]	cAMP antagonism pIC50
B1	0	0.473	100	9.3
B2	0	1.08	100	9
B3	0	1.47	100	8.8
B4	0	79.4	81	7.1
B5	0	79.4	80	7.1
B6	0	7.94	97	8.1
B7	0	35.5	100	7.5
